In assay [1] the target is T1, human PCSK9 (proprotein convertase subtilisin/kexin type 9), His-tagged, full-length (human, UniProt A8T644 31-152; Q8NBP7 153-692, limits assumed).
T1 construct: The secreted protein is the prodomain plus the catalytic/Cys-rich part (N-terminus S153) after autocleavage; also called His-PCSK9; NARC-1
The assay can be described thus: SPR, Biacore T100, His-tagged protein captured on NTA chip (Method 1).

Assay [2] concerns the target T2, His-tagged, full-length PCSK9 (human, UniProt A8T644 31-152; Q8NBP7 153-692).
T2 construct: Target protein of the PCSK9/EGF(A) TR-FRET assay (10 nM); also called His-PCSK9; proprotein convertase subtilisin/kexin type 9
The assay is described as follows: TR-FRET competition; competitor EGF(A)-Fc on His-PCSK9.

Assay [3] concerns the target T3, His-tagged PCSK9Δhelix (human, UniProt Q8NBP7 31-152; Q8NBP7 168-692).
T3 construct: Human PCSK9 M1-Q692 with engineered TEV site, cleaved by TEV protease; Target protein of the PCSK9Δhelix/Ab20 TR-FRET assay (1.25 nM); also called His-PCSK9Δhelix
The assay can be described thus: TR-FRET competition; competitor Ab20 on His-PCSK9Δhelix.

The target of assay [4] is T1, human PCSK9 (proprotein convertase …). The assay is described as follows: TR-FRET competition vs EGF(A)-Fc on His-PCSK9.
The target is the same in assay [5]. The assay can be described thus: SPR, Biacore T100, NTA capture, single cycle kinetics (Method 2).
In assay [6] the target is T4, PCSK9Δhelix (human, UniProt Q8NBP7 31-152).
T4 construct: domain: prodomain; Construct M1-Q692 with engineered TEV site, cut with TEV; His-tagged (tag not written as a part); also called His-PCSK9Δhelix; open groove PCSK9Δhelix
T4 sequence (Q8NBP7 31-152 limits assumed, stated change not applied, form in doubt, chain 1 of 2): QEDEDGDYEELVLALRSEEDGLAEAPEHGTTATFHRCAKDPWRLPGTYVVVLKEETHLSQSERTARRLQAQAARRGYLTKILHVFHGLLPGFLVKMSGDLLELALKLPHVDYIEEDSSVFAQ
T4 sequence (Q8NBP7 other isoform, or with tags, fused parts or gaps mutant limits assumed, form in doubt, chain 2 of 2): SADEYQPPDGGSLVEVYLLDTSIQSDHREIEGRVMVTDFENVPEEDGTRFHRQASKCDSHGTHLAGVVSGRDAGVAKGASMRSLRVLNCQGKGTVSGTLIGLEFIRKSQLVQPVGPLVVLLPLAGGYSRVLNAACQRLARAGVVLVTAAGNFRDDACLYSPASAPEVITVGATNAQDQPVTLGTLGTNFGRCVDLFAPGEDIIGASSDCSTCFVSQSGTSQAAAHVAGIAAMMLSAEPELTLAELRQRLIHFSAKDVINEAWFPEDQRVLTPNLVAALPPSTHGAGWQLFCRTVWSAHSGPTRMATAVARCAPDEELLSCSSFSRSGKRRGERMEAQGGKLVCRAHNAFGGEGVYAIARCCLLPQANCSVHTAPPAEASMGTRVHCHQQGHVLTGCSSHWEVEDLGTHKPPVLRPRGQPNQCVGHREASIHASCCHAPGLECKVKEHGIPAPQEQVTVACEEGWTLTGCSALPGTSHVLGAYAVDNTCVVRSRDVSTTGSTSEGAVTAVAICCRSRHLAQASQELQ
The assay can be described thus: SPR.

Assay [7] has as its target T1, human PCSK9 (proprotein convertase …). The assay is described as follows: TR-FRET competition vs EGF(A)-Fc on His-PCSK9. This is another data set of the same source.
Assay [8] addresses T5, proprotein convertase subtilisin/kexin type 9 (PCSK9) (human, UniProt Q8NBP7 31-152).
T5 construct: domain: prodomain; Recombinant; tag not written as a part; also called rec.PCSK9; His-PCSK9
The assay can be described thus: phage competition ELISA.

Assay [9] addresses T1, human PCSK9 (proprotein convertase …). The assay is described as follows: TR-FRET competition vs EGF(A)-Fc on His-PCSK9. This is another data set of the same source.
The target in assay [10] is T6, PCSK9Δhelix (human PCSK9 lacking the P' helix, His-tagged) (human, UniProt Q8NBP7 31-152; Q8NBP7 168-692).
T6 construct: Construct M1-Q692 with engineered TEV site (Y166, R167 deleted, ENLYFQS inserted between R165 and A168), cleaved by TEV protease; new N-terminus of the catalytic domain is S-A168; also called His-PCSK9Δhelix
T6 sequence (Q8NBP7 31-152, stated change not applied, chain 1 of 2): as the sequence (Q8NBP7 31-152 limits assumed, stated change not applied, form in doubt, chain 1 of 2) above
T6 sequence (Q8NBP7 other isoform, or with tags, fused parts or gaps mutant, chain 2 of 2): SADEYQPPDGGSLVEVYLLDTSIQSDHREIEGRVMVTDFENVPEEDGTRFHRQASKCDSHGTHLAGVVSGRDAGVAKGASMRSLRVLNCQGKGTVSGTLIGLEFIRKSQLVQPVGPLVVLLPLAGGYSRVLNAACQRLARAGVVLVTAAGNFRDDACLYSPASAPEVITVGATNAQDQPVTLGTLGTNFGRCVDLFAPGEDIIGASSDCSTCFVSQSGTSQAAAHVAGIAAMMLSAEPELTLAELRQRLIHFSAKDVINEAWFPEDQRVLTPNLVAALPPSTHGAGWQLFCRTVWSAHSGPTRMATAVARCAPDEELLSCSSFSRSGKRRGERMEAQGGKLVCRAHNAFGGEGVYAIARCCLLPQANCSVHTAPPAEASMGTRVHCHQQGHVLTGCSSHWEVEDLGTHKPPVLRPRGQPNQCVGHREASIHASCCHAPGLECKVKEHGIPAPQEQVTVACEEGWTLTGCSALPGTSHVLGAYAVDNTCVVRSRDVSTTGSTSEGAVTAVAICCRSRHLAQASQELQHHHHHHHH
The assay is described as follows: TR-FRET competition vs Ab20 on His-PCSK9Δhelix.

The target of assay [11] is T4, PCSK9Δhelix. The assay can be described thus: TR-FRET competition, Ab20 as competitor.

Read-outs that look alike come from different tables or passages of the source. Bridge positions count the residues as written; N and C are the ends. Square brackets hold non-standard residues; d marks the D form. Ends that are not written are not given here. * marks the point of attachment. hArg = N=C(N)NCCCC[C@H](N)C(=O)O; Pentanoyl = CCCCC(=O)*

T1 sequence (A8T644 31-152 limits assumed, chain 1 of 2): as the sequence (Q8NBP7 31-152 limits assumed, stated change not applied, form in doubt, chain 1 of 2) above
T1 sequence (A8T644 other isoform, or with tags, fused parts or gaps limits assumed, chain 2 of 2): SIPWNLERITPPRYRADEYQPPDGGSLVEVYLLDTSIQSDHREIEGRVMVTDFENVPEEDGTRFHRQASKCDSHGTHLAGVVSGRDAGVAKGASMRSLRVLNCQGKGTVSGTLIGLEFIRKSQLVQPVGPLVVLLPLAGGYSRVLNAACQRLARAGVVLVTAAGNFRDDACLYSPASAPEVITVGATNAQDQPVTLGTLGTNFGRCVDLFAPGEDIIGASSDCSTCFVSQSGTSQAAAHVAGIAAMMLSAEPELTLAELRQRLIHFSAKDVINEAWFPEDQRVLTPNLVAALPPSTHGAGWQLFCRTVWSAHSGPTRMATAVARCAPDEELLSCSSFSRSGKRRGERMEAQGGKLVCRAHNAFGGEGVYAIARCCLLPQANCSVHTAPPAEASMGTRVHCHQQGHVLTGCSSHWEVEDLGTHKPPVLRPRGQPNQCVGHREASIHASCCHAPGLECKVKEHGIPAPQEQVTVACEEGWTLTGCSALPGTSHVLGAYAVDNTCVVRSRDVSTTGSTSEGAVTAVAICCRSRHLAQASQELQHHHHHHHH
T2 sequence (A8T644 31-152 limits assumed, chain 1 of 2): as the sequence (Q8NBP7 31-152 limits assumed, stated change not applied, form in doubt, chain 1 of 2) above
T2 sequence (A8T644 other isoform, or with tags, fused parts or gaps limits assumed, chain 2 of 2): as the sequence (A8T644 other isoform, or with tags, fused parts or gaps limits assumed, chain 2 of 2) above
T3 sequence (Q8NBP7 31-152, stated change not applied, chain 1 of 2): as the sequence (Q8NBP7 31-152 limits assumed, stated change not applied, form in doubt, chain 1 of 2) above
T3 sequence (Q8NBP7 other isoform, or with tags, fused parts or gaps mutant, chain 2 of 2): as the sequence (Q8NBP7 other isoform, or with tags, fused parts or gaps mutant, chain 2 of 2) above
T5 sequence (Q8NBP7 31-152 limits assumed, chain 1 of 2): as the sequence (Q8NBP7 31-152 limits assumed, stated change not applied, form in doubt, chain 1 of 2) above
T5 sequence (Q8NBP7 153-692 limits assumed, chain 2 of 2): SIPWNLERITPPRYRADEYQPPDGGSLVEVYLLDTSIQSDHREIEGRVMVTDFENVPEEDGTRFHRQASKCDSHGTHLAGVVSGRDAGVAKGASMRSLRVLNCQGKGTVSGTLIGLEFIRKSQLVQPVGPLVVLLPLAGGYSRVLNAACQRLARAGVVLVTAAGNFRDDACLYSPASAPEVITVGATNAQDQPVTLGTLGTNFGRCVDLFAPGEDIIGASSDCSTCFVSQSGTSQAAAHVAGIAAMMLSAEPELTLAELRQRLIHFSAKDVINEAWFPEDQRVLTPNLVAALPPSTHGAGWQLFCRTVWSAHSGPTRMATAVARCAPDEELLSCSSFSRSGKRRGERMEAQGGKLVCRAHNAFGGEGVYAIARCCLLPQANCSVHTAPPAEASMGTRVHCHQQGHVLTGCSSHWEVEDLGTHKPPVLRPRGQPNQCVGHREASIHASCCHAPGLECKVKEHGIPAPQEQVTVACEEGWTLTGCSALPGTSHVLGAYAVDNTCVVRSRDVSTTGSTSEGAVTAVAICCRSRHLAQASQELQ

H-SGCFIPWNLQRIGLLC-NH2 (disulfide 3-16 (inferred)) [Compound 26] displayed a Kd in [1] of 29000 nM.

B1: Compound 109 (peptide)
peptide: Ac-C[dR]LPWNLQRIGLPC-NH2
modifications: disulfide 1-14
SMILES: CC[C@H](C)[C@@H]1NC(=O)[C@H](CCCNC(=N)N)NC(=O)[C@H](CCC(N)=O)NC(=O)[C@H](CC(C)C)NC(=O)[C@H](CC(N)=O)NC(=O)[C@H](Cc2c[nH]c3ccccc23)NC(=O)[C@@H]2CCCN2C(=O)[C@H](CC(C)C)NC(=O)[C@@H](CCCNC(=N)N)NC(=O)[C@@H](NC(C)=O)CSSC[C@@H](C(N)=O)NC(=O)[C@@H]2CCCN2C(=O)[C@H](CC(C)C)NC(=O)CNC1=O
For the molecule B1, the IC50 in assay [2] was over 50000 nM; in assay [3], 1670 nM.
In turn, Ac-TVFTSWEEYLDWVGGSGCWNLKRIGSQGC-NH2 (disulfide 18-29 (inferred)) [Compound 13] returned an IC50 in assay [4] of 10 nM.
On the same count and under the same terms, to Ac-TVFTSWEEYLDWVGSGGCWNLKRIGSQGC-NH2 (disulfide 18-29 (inferred)) [Compound 14] belongs 9 nM.
Turning to Ac-SPCRVGYTPC-NH2 (disulfide 3-10 (inferred)) [Compound 23], binding in assay [5] was put at a Kd of 5740 nM.

B2: Compound 108 (peptide)
peptide: Ac-CR[dL]PWNLQRIGLPC-NH2
modifications: disulfide 1-14
SMILES: CC[C@H](C)[C@@H]1NC(=O)[C@H](CCCNC(=N)N)NC(=O)[C@H](CCC(N)=O)NC(=O)[C@H](CC(C)C)NC(=O)[C@H](CC(N)=O)NC(=O)[C@H](Cc2c[nH]c3ccccc23)NC(=O)[C@@H]2CCCN2C(=O)[C@@H](CC(C)C)NC(=O)[C@H](CCCNC(=N)N)NC(=O)[C@@H](NC(C)=O)CSSC[C@@H](C(N)=O)NC(=O)[C@@H]2CCCN2C(=O)[C@H](CC(C)C)NC(=O)CNC1=O
B2: the IC50 is over 50000 nM in assay [2] and 28200 nM in assay [3].

B3: Compound 2 (peptide)
peptide: Ac-TVFTSWEEYLDWVGSGCWNLKRIGSQGC-NH2
modifications: disulfide 17-28
SMILES: CC[C@H](C)[C@@H]1NC(=O)[C@H](CCCNC(=N)N)NC(=O)[C@H](CCCCN)NC(=O)[C@H](CC(C)C)NC(=O)[C@H](CC(N)=O)NC(=O)[C@H](Cc2c[nH]c3ccccc23)NC(=O)[C@@H](NC(=O)CNC(=O)[C@H](CO)NC(=O)CNC(=O)[C@@H](NC(=O)[C@H](Cc2c[nH]c3ccccc23)NC(=O)[C@H](CC(=O)O)NC(=O)[C@H](CC(C)C)NC(=O)[C@H](Cc2ccc(O)cc2)NC(=O)[C@H](CCC(=O)O)NC(=O)[C@H](CCC(=O)O)NC(=O)[C@H](Cc2c[nH]c3ccccc23)NC(=O)[C@H](CO)NC(=O)[C@@H](NC(=O)[C@H](Cc2ccccc2)NC(=O)[C@@H](NC(=O)[C@@H](NC(C)=O)[C@@H](C)O)C(C)C)[C@@H](C)O)C(C)C)CSSC[C@@H](C(N)=O)NC(=O)CNC(=O)[C@H](CCC(N)=O)NC(=O)[C@H](CO)NC(=O)CNC1=O
In [5], B3 returned a Kd of 30.3 nM. In addition, the IC50 in assay [4] came to 110 nM.
As for Ac-TVFTSWEEYLDWVGSGCWNLKRVGSQGC-NH2 (disulfide 17-28 (inferred)) [Compound 12], the IC50 in assay [4] amounted to 190 nM.
Still for that read-out and setting: the same measure for Ac-TVFTSWEEYLDWVGSGCWNLGRIGSQGC-NH2 (disulfide 17-28 (inferred)) [Compound 11]: 340 nM.
Regarding Ac-WNLV[hArg]IGLLR-NH2 (Ac-WNLV(homoR)IGLLR-NH2) [Compound 192], the “fold improvement of binding affinity against Compound 53” value in assay [6] is 14 fold.
In turn, Ac-TVFTSWEEYLDWVGSGGCRLPWNLQRIGLPC-NH2 (disulfide 18-31 (inferred)) [Compound 25] had a half-inhibitory concentration (IC50) in assay [4] of 781 nM.
The same measure, in the same setting: to Ac-TVFTSWEEYLDWVGSGGCFLPWNLQRIGLLC-NH2 (disulfide 18-31 (inferred)) [Compound 38] belongs 471 nM.
Ac-TVFTSWEEYLDWVGSGCRLPWNLQRIGLPC-NH2 (disulfide 17-30 (inferred), also called Pep2-8p4; Pep2-8_K9gvpep4) [Compound 19]: in [4], the IC50 is 9 nM. The Kd in assay [1] is 2.07 nM.
Turning to Ac-TVFTSWEEYLDWVGSGKLWNLG-NH2 [Compound 5], in [7], the IC50 stood at 720 nM.
Molecule Ac-TVFTSWEEYLDWVGSGKLWNL-NH2 [Compound 6] gave an IC50 in [7] of 740 nM.
As for SGCRLPWNLQRIGLPC (not fully specified (bridges); cysteine pairing not given here, Synthetic peptide) [K9gvpep4], the binding result in assay [8] is recorded as “binds”.
As for Ac-TVFTSWEEYLDWVGSGKLWN-NH2 [Compound 7], the IC50 in [7] was 500 nM.
Still for that read-out and setting: the same measure for Ac-TVFTSWEEYLDWVGSGKLWNLGR-NH2 [Compound 4]: 490 nM.
For the molecule Ac-DLMPWNLVRIALLR-NH2 [Compound 57], the IC50 in [9] is over 50000 nM; in assay [10], 49500 nM.

B4: Compound 229 (peptide)
peptide: Ac-MESFPGWNLV[hArg]IGLLR-NH2
SMILES: CC[C@H](C)[C@H](NC(=O)[C@H](CCCCNC(=N)N)NC(=O)[C@@H](NC(=O)[C@H](CC(C)C)NC(=O)[C@H](CC(N)=O)NC(=O)[C@H](Cc1c[nH]c2ccccc12)NC(=O)CNC(=O)[C@@H]1CCCN1C(=O)[C@H](Cc1ccccc1)NC(=O)[C@H](CO)NC(=O)[C@H](CCC(=O)O)NC(=O)[C@H](CCSC)NC(C)=O)C(C)C)C(=O)NCC(=O)N[C@@H](CC(C)C)C(=O)N[C@@H](CC(C)C)C(=O)N[C@@H](CCCNC(=N)N)C(N)=O
As for B4, in [11], the “fold improvement of affinity against Compound 192” value was over 6 fold.
The molecule Ac-TVFTSWEEYLDWVGSGDLMPWNLVRIGLLR-NH2 (also called Pep2-8p7; Pep2-8_K9gvpep7) [Compound 20] registered a Kd in assay [1] of 5.56 nM. Moreover, the IC50 in [7] came out at 37 nM.
As for Ac-TVFTSWEEYLDWVGGSGKLWNLGRV-NH2 [Compound 8], the half-inhibitory concentration (IC50) in assay [7] is 1030 nM.
On the same count and under the same terms, to Ac-TVFTSWEEYLDWVGSGGKLWNLGRV-NH2 [Compound 9] belongs 390 nM.

B5: Compound 28 (peptide)
peptide: SGDLMPWNLVRIGLLR
notes: Printed without N-terminal cap and without C-terminal amide
Take B5: the Kd in assay [1] came to 46100 nM.

B6: Compound 112 (peptide)
peptide: Pentanoyl-WNLVRIGLTR-NH2
SMILES: CCCCC(=O)N[C@@H](Cc1c[nH]c2ccccc12)C(=O)N[C@@H](CC(N)=O)C(=O)N[C@@H](CC(C)C)C(=O)N[C@H](C(=O)N[C@@H](CCCNC(=N)N)C(=O)N[C@H](C(=O)NCC(=O)N[C@@H](CC(C)C)C(=O)N[C@H](C(=O)N[C@@H](CCCNC(=N)N)C(N)=O)[C@@H](C)O)[C@@H](C)CC)C(C)C
Consider B6, for which, in assay [11], the IC50 was under 10000 nM.
Regarding Ac-WNLVRIGLLR-NH2 [Compound 53], the “fold reduction of binding affinity against Compound 35” value in [6] is 10 fold.

Source of the values: patent publication US20190177366A1 (published 2019).
